# Measured values from US20220048999A1 (Genmab, published 2022).
# Changes are numbered by the printed parent chain. Names may count otherwise.
# T1: human B7H4, full length, on cells (human, UniProt Q7Z7D3 25-282)
# T1 construct: On transiently transfected HEK cells or on B7H4-expressing human tumor cell lines; also called VTCN1
# T1 sequence: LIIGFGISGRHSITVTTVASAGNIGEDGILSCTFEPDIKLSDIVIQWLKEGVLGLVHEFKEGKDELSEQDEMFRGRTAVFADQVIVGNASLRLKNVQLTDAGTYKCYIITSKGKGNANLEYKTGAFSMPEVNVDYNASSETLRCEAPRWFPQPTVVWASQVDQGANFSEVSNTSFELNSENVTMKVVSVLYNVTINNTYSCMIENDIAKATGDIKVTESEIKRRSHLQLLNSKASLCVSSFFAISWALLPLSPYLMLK
# T2: mouse (Mus musculus) B7H4, full length, on HEK-293F cells (mouse, UniProt Q7TSP5 25-257)
# T2 sequence: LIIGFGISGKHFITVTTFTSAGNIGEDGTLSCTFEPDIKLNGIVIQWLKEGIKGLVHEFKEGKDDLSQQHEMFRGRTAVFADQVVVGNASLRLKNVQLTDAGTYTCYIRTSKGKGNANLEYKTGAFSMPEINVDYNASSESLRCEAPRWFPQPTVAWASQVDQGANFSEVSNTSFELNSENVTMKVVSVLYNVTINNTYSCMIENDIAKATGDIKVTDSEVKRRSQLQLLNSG
# T3: cynomolgus monkey (Macaca fascicularis) B7H4 transcript 1, full length, on HEK-293F cells (cynomolgus monkey, UniProt Q7Z7D3 25-282 (human entry))
# T3 construct: also called cynomolgus B7H4
# T3 chain: T1 sequence with L53I, F242L, S252A
# B1: IgG1-B7H4-C1-N52S-FEAR (antibody, V domains shown)
# VH: QVQLQQWGAGLLKPSETLSLTCAVYGGSFSGYYWSWIRQPPGKGLEWIGEISHSGSTNYNPSLKSRVTISIDTSKNQFSLKLTSVTAADTAVFYCARGLFNWNFDSWGQGTLVTVSS
# VL: DIQMTQSPSSLSASVGDRVTITCRASQGIRNDLGWYQQKPGKAPKRLIYGASSLQSGVPSRFSGSGSGTEFTLTISSLQPEDFATYYCLQHNSYPRTFGQGTTVEIKR
# notes: Full-length human IgG1 with L234F, L235E, D265A, K409R (FEAR), kappa light chain; also called IgG1-B7H4-C1-052S-FEAR; IgG1-B7H4-C1-N525-FEAR
# Columns and labels:
# [1] = biological target: T1, human B7H4, full length, on cells; assay: flow cytometry, HEK-293F cells transfected with human B7H4 (panel Human B7H4), about 0.0004-30 µg/ml, MFI PE
# Description: (§1) Cells (3×10⁴ cells/well) were incubated in polystyrene 96-well round-bottom plates (Greiner bio-one, cat. no. 650180) with serial dilutions of antibodies (ranging from 0.000458 to 30 μg/mL in 4-fold dilution steps) in 100 μL PBS/0.1% BSA/0.02% azide (staining buffer) at 4° C. for 30 min. Experiments were performed in technical duplicate. After washing twice in staining buffer, cells were incubated in 50 μL secondary antibody at 4° C. for 30 min. As a secondary antibody, R-Phycoerythrin (PE)-conjugated goat-anti-human IgG F(ab′)₂ (1:500 in FACS buffer; Jackson ImmunoResearch Laboratories, Inc., West Grove, Pa., cat. no. 109-116-098), was used. Cells were washed twice in staining buffer, re-suspended in 30 μL FACS buffer containing Topro-3 (1:10,000 dilution) and analyzed on an iQue Screener (Intellicyt Corporation, USA). Binding curves were analyzed using non-linear regression (sigmoidal dose-response with variable slope) using Graph Pad Prism V7.02 software (GraphPad Software, San Diego, Calif., USA).
# [2] = biological target: T2, mouse (Mus musculus) B7H4, full length, …; assay: flow cytometry, HEK-293F cells transiently transfected with mouse B7H4 (panel Mouse B7H4), 0.000458-30 µg/ml, PE-anti-human IgG, MFI PE
# Description: as §1
# [3] = biological target: T3, cynomolgus monkey (Macaca fascicularis) …; assay: flow cytometry, HEK-293F cells transfected with cynomolgus monkey B7H4 (panel Cynomolgus monkey B7H4), about 0.0004-30 µg/ml, MFI PE
# Description: as §1
binder,measurement,setting,value
B1,EC50 (read off the curve),[1],~0.04 µg/mL
same,EC50 (read off the curve),[2],~0.4 µg/mL
same,EC50 (read off the curve),[3],~0.1 µg/mL
